Results as given in patent publication US5336615.

Target: human plasminogen (human) (UniProt P00747)

u-PA activity (mPU/µg cell protein): 4.9
Substance: bovine urokinase-type plasminogen activator (u-PA) (from UniProt Q05589) (enzyme)
